Consider 12 molecules from patent US20220064331A1 (Genentech, published 2022).

Changes are numbered by the printed parent chain.

To fix the notation:
B1: 8H7 (antibody, V domains shown)
VH: QVQLQQPGAEIVKPGASVRLSCKASGYSFTSYWIHWVKQRPGQGLEWIGEIDPSVSNSNYNQKFKGKATLTADKSSSTAYMQLSGLTSEDSAVYFCVRLGVMVYGSSPFWFAYWGQGTLVTVSA
VL: DIVMTQSQKFMSTSVGDRVSITCKASQFVSDAVAWYQQKPGQSPKLLICSASYRYTGVPDRFTGSGSGTDFTFTISSVRTEDLAVYYCQQHYIVPYTFGGGTTLEIE
notes: murine hybridoma-derived anti-KLB antibody
B2: 24A1 (antibody, V domains shown)
VH: QVQLKQSGAELVRPGTSVTLSCKASGYTFTDYEMHWMKQTPVYGLEWIGAIWPENADSVYNQKFKGKVTLTADKSSSTAYMDLRSLTSEDSAVYYCTREGGNYWGQGTTLTVSS
VL: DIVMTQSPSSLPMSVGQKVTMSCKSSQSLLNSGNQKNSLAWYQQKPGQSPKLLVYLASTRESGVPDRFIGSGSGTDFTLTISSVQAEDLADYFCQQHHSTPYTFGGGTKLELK
notes: as for B1
B3: 12A11 (antibody, V domains shown)
VH: EVKFLESGGGLVQPGGSLRLSCAVSGIDFSRYWMSWVRQAPGKGLEWIGEISPDSSTINYTPSLKDKFVISRDNAKNTLYLQMSKVRSADTALYYCARPSPALDYWGQGTLVTVSA
VL: DIVMTQSPATLSVTPGDRVSLSCRASQSISDYVYWYQQKSHESPRLLIIYASQSISGIPSRFSGSGSGSDFTLSINSVEPEDVGVYYCQNGHNFPYTFGGGTKLEIK
notes: murine hybridoma-derived anti-KLB antibody; also called KLBmAb2
B4: 5F8 (antibody, V domains shown)
VH: EVQLQQSGTELVRPGASVKLSCTSSDFNIKDTYIHWVKQRPEQGLDWLGRIDPANGNTKYDPKFQGKAAMTSDTSSNTAYLRLSSLTSEDTAVYYCASSGNYGAMDYWGQGTSVTVSS
VL: ESVLTQSPALMSASLGEKVTMTCRASSSVNHMYWYQQKSDASPKLWIYYTSTLAPGVPARFSGSGSGNSYSLTISSMEGEDAATYYCQQFTISPSMYTFGGGTKLEIK
notes: as for B1
B5: 12B8 (antibody, V domains shown)
VH: QIQLVQSGPELKKPGETAKISCKASGYAFSNYGMNWVKQAPGKDLKWMGWIDTDTGEATYTDDFKGRFVFSLETSASTAYLQINNLKNEDMATYFCAREEYGLFGFPYWGHGTLVTVSA
VL: DIQMTQSSSSFSVSLGDRVTITCKASEDIYNRLAWYQQKPGSAPRLLISAATSLETGVPSRFSGSGSGKDYTLSITSLQTEDVATYYCQQYWSNPLTFGAGTKLEIK
notes: as for B1
B6: 8E1 (antibody, V domains shown)
VH: EVQLQQSGAELVKPGASVKLSCTAADFNIKDTYMHWVKQRPEQGLEWIGRIDPSNGNAKYDPKFQGKASITADSSSNTAYLHLSSLTSEDTAVYYCASRALGNGYALGYWGQGTSVTVSS
VL: DIQMTQSSSYLSVSLGGSVTITCKASDHINNWLAWYQQKPGNAPRLLIYGTTNLETGVPSRFSGSGSGRDYILSITSLQSEDVASYYCQQYWNTPFTFGSGTKLEIK
notes: as for B1
B7: 25F7 (antibody, V domains shown)
VH: EVQLQQSGAELLKPGASVRLSCTASGFNIQDTFTHWVRQRPEQGLEWIGRIDPSNGNTKYDPKFQGKAKILADTSSNTAYLQLIGLTSEDTAVYYCASRALGNGYAMDYWGQGTSVTVSS
VL: B6 VL with S18R, Y49S, T51A, T52S, V58I, R69K, I72T, S74T, S80T, S85T
notes: as for B1
B8: 14C6 (antibody, V domains shown)
VH: QIQLQQSGAELMKPGASVRMSCKASGYTFSSYWIEWVKQRSGHGLEWIGEIFPGGGSTIYNENFRDKATFTADTSSNTAYMQLSSLTSEDSAVYFCARRGYYDAAWFDYWGQGTLVTVSA
VL: QIVLTQSPAIMSASPGERVTLTCSASSSLSSSYLYWYQQKPGSSPKLWIYGASNLASGVPGRFSGSGSGTSYSLTISSMEAEDAASYFCHQWSSYPLTFGSGTKLELK
notes: as for B1
B9: 46C3 (antibody, V domains shown)
VH: EVQLQQSGAELVKPGASVKLSCTASDFNIIDTYIHWVKQRPEQGLEWIGRIDPANGNTKYDPKFQDKAALTSDTDSNTAYLLFNSLTSEDTAVYYCARGTSYSWFAYWGQGTLVSVSA
VL: AVLMTQTPLSLPVSLGDQASISCRSSQNIVHSDGNTYLEWYLQKPGQSPKLLIYKVSNRFSGVPDRFSGSGSGRDFTLKISRVEAGDLGVYYCFQGSHVLTFGAGTRLELK
notes: as for B1
B10: 14E6 (antibody, V domains shown)
VH: EVPLQQSGPELVKPGATVKISCKPSGDTFTEYTMNWVRQSHGKSLEWIGGINPNNGETSYNQKFKGKATLTVDKSSSTAFMDLRILTSEDSAVYFCARKTTNYWGQGTTLIVSS
VL: DIQMTQSPSSLSASLGERVSLTCRASQEISGYLSWLQQKPDGTIKRLIYAASTLDSGVPRRFSGSRSGSDYSLTISSLESEDFADYYCLQYGSYPWTFGGGTKLELK
notes: as for B1
B11: 11F1 (antibody, V domains shown)
VH: EVQLVESGGGLVKPGGSLKLSCAPSGFTFSSYGISWVRQTPEKRLEWVATVSSGGRYTYYPDSVKGRFTISRDNAENTLYLQMSSLRSEDTAMYYCTRGGDGYALDYWGQGTSVTVSS
VL: DIQMTQTTSSLSASLGDRVTIICSASQVISNYLNWYQQKPDGTVKLLIYFTSSLRSGVPSRFSGSGSGTDYSLTISNLEPEDVATYFCQQYSKLPWTFGGGTKLELK
notes: as for B1
B12: 21H3 (antibody, V domains shown)
VH: B1 VH
VL: B1 VL
notes: as for B1

One assay concerns the target T1, human KLB expressed on cells (human, UniProt Q86Z14 53-1044).
T1 construct: on transfected 293 / HEK293 cells; also called hKLB; beta-Klotho
The experiment in a line: FACS on 293 cells expressing hKLB, antibody at 0.8 µg/ml, median shift.
As to B1, the binding result is given as “binds”.
Still for that read-out and setting: the value for B2 was “binds”; that for B3 was “binds”.
In the case of B4, the binding result is “binds”.
With B5, the binding result is on record as “binds”.
Same read-out and setting: then B6, with “binds”; and B7, with “binds”; and B8, with “binds”.

Another assay deals with T2, mouse KLB (mouse, UniProt Q99N32 53-990).
T2 construct: expressed from KLB cDNA on HEK293T cells and read by FACS; also called msKLB
T2 sequence: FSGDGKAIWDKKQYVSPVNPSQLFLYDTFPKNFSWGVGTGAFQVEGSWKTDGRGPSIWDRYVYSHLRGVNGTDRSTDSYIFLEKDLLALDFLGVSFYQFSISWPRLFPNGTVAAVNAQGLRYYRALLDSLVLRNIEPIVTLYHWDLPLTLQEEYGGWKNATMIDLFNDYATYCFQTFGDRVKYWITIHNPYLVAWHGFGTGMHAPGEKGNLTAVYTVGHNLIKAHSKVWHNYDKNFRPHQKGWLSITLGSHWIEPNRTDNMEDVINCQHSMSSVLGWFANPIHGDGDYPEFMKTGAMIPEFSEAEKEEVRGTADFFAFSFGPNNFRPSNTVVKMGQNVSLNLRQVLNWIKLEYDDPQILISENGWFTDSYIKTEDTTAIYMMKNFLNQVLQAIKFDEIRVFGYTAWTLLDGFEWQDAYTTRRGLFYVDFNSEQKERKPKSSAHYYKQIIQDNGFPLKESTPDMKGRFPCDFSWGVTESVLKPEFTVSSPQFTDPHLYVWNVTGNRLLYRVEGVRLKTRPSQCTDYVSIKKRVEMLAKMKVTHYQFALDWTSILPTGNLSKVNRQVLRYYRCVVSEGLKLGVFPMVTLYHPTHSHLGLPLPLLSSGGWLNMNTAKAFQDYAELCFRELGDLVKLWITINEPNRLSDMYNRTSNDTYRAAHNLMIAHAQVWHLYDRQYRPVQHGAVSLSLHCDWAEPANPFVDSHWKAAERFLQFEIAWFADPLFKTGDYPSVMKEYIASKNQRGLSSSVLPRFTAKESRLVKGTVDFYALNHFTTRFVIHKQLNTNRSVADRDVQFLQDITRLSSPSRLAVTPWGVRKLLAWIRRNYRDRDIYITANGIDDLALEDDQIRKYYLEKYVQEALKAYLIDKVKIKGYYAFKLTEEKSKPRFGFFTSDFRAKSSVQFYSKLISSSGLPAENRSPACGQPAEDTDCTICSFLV
The experiment in a line: FACS on transfected HEK293T cells. How it is done:
(§1) Species cross reactivity of the disclosed anti-KLB antibodies were analyzed by FACS analysis using KLB cDNA from mouse, rat, rabbit, cynomolgus monkey and rhesus monkey cloned into pRK mammalian expression vectors transiently transfected into HEK293T cells. The KLB extracellular domain polypeptide sequences that were expressed are as follows: […]
Consider B9, for which the binding result was “no binding”.
In the case of B2, the binding result is recorded as “binds”.
For the molecule B4, the binding result was “no binding”.
Turning to B10, the binding result is “binds”.
The same measure, in the same setting: the value for B5 was “no binding”; that for B6 was “no binding”.
On to B7, for which the binding result is on record as “no binding”.
Take B11: the binding result is reported as “no binding”.
As for B8, the binding result is “binds”.

For a further assay, the target named is T3, rabbit KLB (+N-ter FLAG) (rabbit).
T3 construct: expressed from KLB cDNA on HEK293T cells and read by FACS
T3 chain: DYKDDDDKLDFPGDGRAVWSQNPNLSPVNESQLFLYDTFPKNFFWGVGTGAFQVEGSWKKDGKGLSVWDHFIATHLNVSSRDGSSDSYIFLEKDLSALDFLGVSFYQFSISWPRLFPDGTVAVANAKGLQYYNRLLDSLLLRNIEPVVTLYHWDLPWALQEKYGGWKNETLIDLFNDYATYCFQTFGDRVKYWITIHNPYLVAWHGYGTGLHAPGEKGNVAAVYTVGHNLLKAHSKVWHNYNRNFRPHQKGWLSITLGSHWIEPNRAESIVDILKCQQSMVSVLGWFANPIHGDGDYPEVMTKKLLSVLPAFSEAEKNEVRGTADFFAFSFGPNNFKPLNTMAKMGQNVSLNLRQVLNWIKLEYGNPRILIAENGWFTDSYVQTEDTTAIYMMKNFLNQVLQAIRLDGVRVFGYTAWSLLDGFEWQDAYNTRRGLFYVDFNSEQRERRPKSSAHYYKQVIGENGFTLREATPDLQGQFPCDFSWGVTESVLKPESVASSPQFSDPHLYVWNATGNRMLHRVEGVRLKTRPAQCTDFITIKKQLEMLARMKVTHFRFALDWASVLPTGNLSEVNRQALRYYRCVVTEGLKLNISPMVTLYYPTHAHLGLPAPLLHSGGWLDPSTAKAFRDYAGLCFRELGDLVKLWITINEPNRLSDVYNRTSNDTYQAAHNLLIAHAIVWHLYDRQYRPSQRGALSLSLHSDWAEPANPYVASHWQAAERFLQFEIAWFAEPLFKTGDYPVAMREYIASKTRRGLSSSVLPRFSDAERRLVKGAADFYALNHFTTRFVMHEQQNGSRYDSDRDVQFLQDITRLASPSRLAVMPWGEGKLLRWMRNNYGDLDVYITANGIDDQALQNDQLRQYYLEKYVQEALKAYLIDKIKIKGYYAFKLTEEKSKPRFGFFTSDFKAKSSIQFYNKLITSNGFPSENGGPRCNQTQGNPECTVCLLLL
As to the kind of experiment: FACS on transfected HEK293T cells. The protocol: as §1
As for B1, the binding result is “binds”.
Take B12: the binding result was “binds”.
Regarding B9, the binding result is recorded as “binds”.
Still for that read-out and setting: the value for B2 was “binds”; that for B3 was “binds”; that for B4 was “binds”.
For B10, the binding result is listed as “binds”.
On the same count and under the same terms, then B5, with “binds”.
Turning to B6, the binding result is recorded as “binds”.
Consider B11, for which the binding result is listed as “no binding”.
On to B8, for which the binding result is given as “binds”.
